Article PMC11420289, “IBR1, a novel endogenous IFIH1‐binding dsRNA, governs IFIH1 activation and M1 macrophage polarisation in ARDS”

Molecular target: T1, IFIH1-WT-Flag (UniProt Q8R5F7 1-1025)
T1 sequence: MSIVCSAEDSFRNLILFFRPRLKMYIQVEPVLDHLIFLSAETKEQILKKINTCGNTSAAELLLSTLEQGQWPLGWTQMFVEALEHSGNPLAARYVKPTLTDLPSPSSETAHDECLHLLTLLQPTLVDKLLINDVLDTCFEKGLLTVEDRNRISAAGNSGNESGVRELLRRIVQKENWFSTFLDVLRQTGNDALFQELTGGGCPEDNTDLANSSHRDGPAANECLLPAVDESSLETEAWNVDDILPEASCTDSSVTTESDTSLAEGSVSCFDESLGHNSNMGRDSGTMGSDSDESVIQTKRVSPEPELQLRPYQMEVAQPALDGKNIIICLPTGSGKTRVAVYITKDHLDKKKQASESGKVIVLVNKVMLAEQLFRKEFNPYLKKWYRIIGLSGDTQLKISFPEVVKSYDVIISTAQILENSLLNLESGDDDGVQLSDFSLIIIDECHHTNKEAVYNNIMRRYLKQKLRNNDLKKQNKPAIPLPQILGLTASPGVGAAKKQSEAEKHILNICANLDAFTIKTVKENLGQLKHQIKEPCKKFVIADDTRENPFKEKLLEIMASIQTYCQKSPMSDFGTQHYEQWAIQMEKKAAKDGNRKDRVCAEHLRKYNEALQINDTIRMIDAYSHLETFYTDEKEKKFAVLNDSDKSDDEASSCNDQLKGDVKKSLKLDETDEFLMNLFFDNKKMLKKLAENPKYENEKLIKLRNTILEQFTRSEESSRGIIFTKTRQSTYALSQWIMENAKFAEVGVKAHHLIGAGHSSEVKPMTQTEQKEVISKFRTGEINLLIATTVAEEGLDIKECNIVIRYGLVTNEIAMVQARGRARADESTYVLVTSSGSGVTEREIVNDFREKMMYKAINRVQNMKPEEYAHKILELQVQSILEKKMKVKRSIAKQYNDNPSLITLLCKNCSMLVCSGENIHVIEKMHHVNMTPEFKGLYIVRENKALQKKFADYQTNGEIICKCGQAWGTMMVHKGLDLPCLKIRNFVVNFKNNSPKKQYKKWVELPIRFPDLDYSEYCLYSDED
Assay: competition; EMSA, 50 pmol cold RNA vs biotin-IBR1-WT; EMSA: 20 mM HEPES pH 7.5, 150 mM NaCl, 1.5 mM MgCl2, 2 mM DTT, 2 mM ADPCP (so in the source), 10 min at room temperature, BisTris native gel
Conditions: protein: recombinant; tags: Flag; His

B1: IBR1-M2 (ssRNA)
RNA: UGUAUUUUCUCCUUAUAAUCACUCCCUCCCGGGGCAUGUAAUUAAUUUCCUGAUGGAUUACUCACACGGUCUUGAAGAUGCAAUGUCAGCUAUUUAGGCUGUGCUAGGACUCAAUUACAACAACAUAUGCAUUAAGACAGGAACUGGCAAGCCGGGACUACAGCAACUACAGGGCUGGUGCUUCCCAACCGCUGGGCUAUAAUCUAUGAAACUGAGCCGGGAUCCAGCCAAUCAGUUAGCUAGCUCCUCAUAACAGGUCUAACUGGCUCUGGACAGCUAAGGGCUGCGCUGGAAC
  binding result: no binding

## GUUCCAGCGCAGCCCUUA (ssRNA) [IBR1-M3]
  binding result: no binding
